A short description of this data set: melting temperature; melt of duplexes. As to conditions: sodium 0.0675 M; strand 1 µM.
For “CGACGTGCGGGATGTGCTG+CAGCACATCGAGCACGTCG ((((((((..(((((((((+)))))))))..))))))))”, the melting temperature (Tm) was found to be 58.1 °C. Regarding “CGACGTGCAACATGTGCTG+CAGCACATGACGCACGTCG ((((((((..(((((((((+)))))))))..))))))))”, the Tm was found to be 50.9 °C. As to “CGACGTGCGTCATGTGCTG+CAGCACATTTCGCACGTCG (((((((((..((((((((+))))))))..)))))))))”, the midpoint of thermal melting (Tm) amounted to 53.1 °C. As for “CGACGTGCAACATGTGCTG+CAGCACATATAGCACGTCG ((((((((.(.((((((((+)))))))).).))))))))”, the figure is 49.1 °C; as for “CGACGTGCGCTATGTGCTG+CAGCACATTACGCACGTCG (((((((((..((((((((+))))))))..)))))))))”, 53.4 °C. The figure for “CGACGTGCCCCATGTGCTG+CAGCACATGCCGCACGTCG ((((((((..(((((((((+)))))))))..))))))))” is 50.3 °C; for “CGACGTGCTACATGTGCTG+CAGCACATTTGGCACGTCG ((((((((.(.((((((((+)))))))).).))))))))” it is 51.1 °C. “CGACGTGCAGAATGTGCTG+CAGCACATGCAGCACGTCG ((((((((.(.((((((((+)))))))).).))))))))”: the midpoint of thermal melting (Tm) came to 54.6 °C. The figure for “CGACGTGCTCTATGTGCTG+CAGCACATAAAGCACGTCG (((((((((.(((((((((+))))))))).)))))))))” is 54 °C; for “CGACGTGCCCTATGTGCTG+CAGCACATACCGCACGTCG ((((((((..(((((((((+)))))))))..))))))))” it is 47.4 °C. Consider “CGACGTGCTATATGTGCTG+CAGCACATGCCGCACGTCG ((((((((...((((((((+))))))))...))))))))”, for which the Tm amounted to 48.9 °C. The figure for “CGACGTGCCGGATGTGCTG+CAGCACATTCTGCACGTCG ((((((((.(.((((((((+)))))))).).))))))))” is 52.3 °C; for “CGACGTGCAACATGTGCTG+CAGCACATAGAGCACGTCG ((((((((...((((((((+))))))))...))))))))” it is 48.9 °C.

As to “CGACGTGCAATATGTGCTG+CAGCACATTACGCACGTCG ((((((((...((((((((+))))))))...))))))))”, the midpoint of thermal melting (Tm) turned out to be 49.7 °C. The figure for “CGACGTGCACCATGTGCTG+CAGCACATGTGGCACGTCG ((((((((..(((((((((+)))))))))..))))))))” is 53.4 °C; for “CGACGTGCTTCATGTGCTG+CAGCACATCCCGCACGTCG ((((((((...((((((((+))))))))...))))))))” it is 47.5 °C; for “CGACGTGCTCAATGTGCTG+CAGCACATTGTGCACGTCG ((((((((.((((((((((+)))))))))).))))))))” it is 56.7 °C.

On to “CGACGTGCTGTATGTGCTG+CAGCACATCTGGCACGTCG ((((((((...((((((((+))))))))...))))))))”, for which the melting temperature (Tm) is 50.9 °C. As for “CGACGTGCAGAATGTGCTG+CAGCACATGGAGCACGTCG ((((((((...((((((((+))))))))...))))))))”, the figure is 55.6 °C. Turning to “CGACGTGCCTGATGTGCTG+CAGCACATGCCGCACGTCG ((((((((...((((((((+))))))))...))))))))”, the Tm turned out to be 47.5 °C.

With “CGACGTGCACTATGTGCTG+CAGCACATGGTGCACGTCG ((((((((((.((((((((+)))))))).))))))))))”, the Tm was 56.6 °C. As for “CGACGTGCTGCATGTGCTG+CAGCACATAGAGCACGTCG (((((((((..((((((((+))))))))..)))))))))”, the figure is 52.3 °C. For the substance “CGACGTGCCACATGTGCTG+CAGCACATGCAGCACGTCG ((((((((..(((((((((+)))))))))..))))))))”, the melting temperature (Tm) was determined as 53.6 °C.

Turning to “CGACGTGCGTGATGTGCTG+CAGCACATTGGGCACGTCG ((((((((...((((((((+))))))))...))))))))”, the midpoint of thermal melting (Tm) is 52.3 °C.

Turning to “CGACGTGCGGAATGTGCTG+CAGCACATTCTGCACGTCG ((((((((.((((((((((+)))))))))).))))))))”, the Tm came to 61.1 °C. As for “CGACGTGCAAAATGTGCTG+CAGCACATGGGGCACGTCG ((((((((...((((((((+))))))))...))))))))”, the figure is 51.7 °C. As for “CGACGTGCTGCATGTGCTG+CAGCACATGTAGCACGTCG (((((((((.(((((((((+))))))))).)))))))))”, the figure is 60.4 °C; as for “CGACGTGCGTTATGTGCTG+CAGCACATTTGGCACGTCG ((((((((...((((((((+))))))))...))))))))”, 49.4 °C.

Turning to “CGACGTGCAGCATGTGCTG+CAGCACATCGCGCACGTCG ((((((((...((((((((+))))))))...))))))))”, the Tm amounted to 51.6 °C. As for “CGACGTGCGTAATGTGCTG+CAGCACATTAAGCACGTCG ((((((((.((((((((((+)))))))))).))))))))”, the figure is 56.9 °C. With “CGACGTGCACTATGTGCTG+CAGCACATCCCGCACGTCG ((((((((...((((((((+))))))))...))))))))”, the Tm came to 42.6 °C. Regarding “CGACGTGCGCGATGTGCTG+CAGCACATACAGCACGTCG ((((((((...((((((((+))))))))...))))))))”, the melting temperature (Tm) worked out at 51.7 °C. Regarding “CGACGTGCAAGATGTGCTG+CAGCACATAGCGCACGTCG ((((((((...((((((((+))))))))...))))))))”, the Tm is 49.8 °C.

As for “CGACGTGCACCATGTGCTG+CAGCACATGGTGCACGTCG (((((((((((((((((((+)))))))))))))))))))”, the melting temperature (Tm) is 65.2 °C. As for “CGACGTGCGATATGTGCTG+CAGCACATCTCGCACGTCG ((((((((((.((((((((+)))))))).))))))))))”, the figure is 57.2 °C; as for “CGACGTGCATTATGTGCTG+CAGCACATTGAGCACGTCG ((((((((...((((((((+))))))))...))))))))”, 49.5 °C; as for “CGACGTGCAGCATGTGCTG+CAGCACATATGGCACGTCG ((((((((...((((((((+))))))))...))))))))”, 46.7 °C. As for “CGACGTGCGCAATGTGCTG+CAGCACATACGGCACGTCG ((((((((...((((((((+))))))))...))))))))”, the figure is 48.6 °C; as for “CGACGTGCGGCATGTGCTG+CAGCACATGCGGCACGTCG ((((((((.((((((((((+)))))))))).))))))))”, 61.7 °C.

For the substance “CGACGTGCGAAATGTGCTG+CAGCACATGAAGCACGTCG ((((((((...((((((((+))))))))...))))))))”, the Tm came to 59.3 °C. The figure for “CGACGTGCCAAATGTGCTG+CAGCACATTACGCACGTCG ((((((((..(((((((((+)))))))))..))))))))” is 50.5 °C. In the case of “CGACGTGCCAGATGTGCTG+CAGCACATCGAGCACGTCG ((((((((..(((((((((+)))))))))..))))))))”, the Tm came out at 56.2 °C. Consider “CGACGTGCGACATGTGCTG+CAGCACATAACGCACGTCG (((((((((..((((((((+))))))))..)))))))))”, for which the melting temperature (Tm) turned out to be 54.2 °C.

As for “CGACGTGCGACATGTGCTG+CAGCACATAAAGCACGTCG ((((((((...((((((((+))))))))...))))))))”, the melting temperature (Tm) worked out at 55.2 °C. As for “CGACGTGCATGATGTGCTG+CAGCACATGCGGCACGTCG ((((((((...((((((((+))))))))...))))))))”, the Tm amounted to 48 °C. As for “CGACGTGCGACATGTGCTG+CAGCACATTATGCACGTCG ((((((((...((((((((+))))))))...))))))))”, the figure is 50.1 °C; as for “CGACGTGCCCTATGTGCTG+CAGCACATCGCGCACGTCG ((((((((.(.((((((((+)))))))).).))))))))”, 48.1 °C; as for “CGACGTGCAGAATGTGCTG+CAGCACATTCGGCACGTCG ((((((((.((((((((((+)))))))))).))))))))”, 59.9 °C. For the substance “CGACGTGCGCAATGTGCTG+CAGCACATTCTGCACGTCG ((((((((..(((((((((+)))))))))..))))))))”, the Tm came out at 52.3 °C.

As for “CGACGTGCTTAATGTGCTG+CAGCACATCAAGCACGTCG ((((((((((.((((((((+)))))))).))))))))))”, the melting temperature (Tm) came to 55 °C.

Regarding “CGACGTGCGCTATGTGCTG+CAGCACATCGGGCACGTCG ((((((((.(.((((((((+)))))))).).))))))))”, the Tm was determined as 52 °C.

Turning to “CGACGTGCCAAATGTGCTG+CAGCACATAACGCACGTCG ((((((((...((((((((+))))))))...))))))))”, the Tm amounted to 47.7 °C. With “CGACGTGCCTGATGTGCTG+CAGCACATTATGCACGTCG ((((((((.(.((((((((+)))))))).).))))))))”, the Tm came out at 50.2 °C.

On to “CGACGTGCGCGATGTGCTG+CAGCACATGCAGCACGTCG ((((((((...((((((((+))))))))...))))))))”, for which the midpoint of thermal melting (Tm) worked out at 55.8 °C.

Turning to “CGACGTGCTGCATGTGCTG+CAGCACATCGAGCACGTCG (((((((((..((((((((+))))))))..)))))))))”, the midpoint of thermal melting (Tm) is 52.5 °C. Regarding “CGACGTGCAAAATGTGCTG+CAGCACATCGAGCACGTCG ((((((((...((((((((+))))))))...))))))))”, the Tm stood at 49.2 °C. Turning to “CGACGTGCAGTATGTGCTG+CAGCACATAGCGCACGTCG ((((((((..(((((((((+)))))))))..))))))))”, the Tm was 51.7 °C. Take “CGACGTGCGCAATGTGCTG+CAGCACATGCAGCACGTCG ((((((((...((((((((+))))))))...))))))))”: the melting temperature (Tm) came out at 57.9 °C. Regarding “CGACGTGCCTCATGTGCTG+CAGCACATAGCGCACGTCG ((((((((...((((((((+))))))))...))))))))”, the midpoint of thermal melting (Tm) was 49.6 °C.

Take “CGACGTGCGACATGTGCTG+CAGCACATCCAGCACGTCG ((((((((...((((((((+))))))))...))))))))”: the Tm was 50.4 °C.

As for “CGACGTGCTAAATGTGCTG+CAGCACATGTTGCACGTCG ((((((((.(.((((((((+)))))))).).))))))))”, the midpoint of thermal melting (Tm) came out at 52.6 °C.

Consider “CGACGTGCCTTATGTGCTG+CAGCACATATCGCACGTCG ((((((((..(((((((((+)))))))))..))))))))”, for which the melting temperature (Tm) is 49.9 °C. As for “CGACGTGCTGCATGTGCTG+CAGCACATCGCGCACGTCG ((((((((...((((((((+))))))))...))))))))”, the figure is 52.6 °C.

Turning to “CGACGTGCCCGATGTGCTG+CAGCACATGATGCACGTCG ((((((((...((((((((+))))))))...))))))))”, the Tm is 48.9 °C. As for “CGACGTGCAACATGTGCTG+CAGCACATTAGGCACGTCG ((((((((...((((((((+))))))))...))))))))”, the figure is 48.9 °C; as for “CGACGTGCACCATGTGCTG+CAGCACATCTCGCACGTCG ((((((((...((((((((+))))))))...))))))))”, 41.8 °C.
